For this test, the target named is human transferrin receptor (human) (UniProt P02786). Kind of test: MST (Monolith NT.115), dye-labelled protein, receptor titrated.
human transferrin receptor (human), sequence (P02786 89-760 limits assumed): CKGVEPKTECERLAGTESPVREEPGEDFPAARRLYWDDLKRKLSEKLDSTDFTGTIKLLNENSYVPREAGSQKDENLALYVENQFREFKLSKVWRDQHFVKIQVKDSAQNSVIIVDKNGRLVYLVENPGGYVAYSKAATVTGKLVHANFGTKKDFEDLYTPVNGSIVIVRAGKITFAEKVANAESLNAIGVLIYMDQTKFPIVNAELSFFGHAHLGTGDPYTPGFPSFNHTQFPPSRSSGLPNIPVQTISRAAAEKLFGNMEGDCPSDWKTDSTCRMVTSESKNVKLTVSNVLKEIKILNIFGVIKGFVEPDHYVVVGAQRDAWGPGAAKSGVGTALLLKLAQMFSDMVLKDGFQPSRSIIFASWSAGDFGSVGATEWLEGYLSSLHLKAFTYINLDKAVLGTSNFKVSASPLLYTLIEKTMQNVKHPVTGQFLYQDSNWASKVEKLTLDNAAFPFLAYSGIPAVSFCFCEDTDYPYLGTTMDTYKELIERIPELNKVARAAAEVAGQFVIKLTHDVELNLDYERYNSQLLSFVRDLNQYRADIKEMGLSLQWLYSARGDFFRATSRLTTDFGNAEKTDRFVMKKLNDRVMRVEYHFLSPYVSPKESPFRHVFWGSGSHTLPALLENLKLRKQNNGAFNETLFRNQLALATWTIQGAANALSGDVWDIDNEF
In turn, AB-AH1-huHF (from UniProt P02794 1-183) yielded a Kd of 10.9 nM. The result for “AB-gp100-huHF (from UniProt P02794 1-183)” reads 29.7 nM; that for BC-AH1-huHF (from UniProt P02794 1-183), 107 nM; that for CD-AH1-huHF (from UniProt P02794 1-183), 3.45 nM. For “CD-gp100-huHF (from UniProt P02794 1-183)” the value was 4.89 nM; for DE-AH1-huHF (from UniProt P02794 1-183), 6.11 nM.

Values taken from US20240150417A1.
